# Measurements reported in publication PMC7021776, “Heme binding of transmembrane signaling proteins undergoing regulated intramembrane proteolysis” (Communications Biology, 2020).
# Biological target: the molecule itself
# Assay: SEC; gel filtration of purified MBP fusion proteins, Superose 6 Increase 10/300 GL, 4 °C, TN buffer (50 mM Tris/HCl pH 7.4, 150 mM NaCl) with 0.1% Triton X-100; growth medium with or without δ-aminolevulinic acid
protein,measurement,value
"TNFα-NTF(1–51) (domain or fragment, human, UniProt P01375 1-51, looked up, The text names it without MBP; source: E. coli NEB Express (pMalC5X), membrane fraction solubilised with Triton X-100, purified (amylose); not shown: MBP, N-terminal, kept) MSTESMIRDVELAEEALPKKTGGPQGSRRCLFLSLFSFLIVAGATTLFCLL",binding result,binds
"MBP-TNFα-NTF(1–76) (domain or fragment, human, UniProt P01375 1-76, looked up, also called TNFα-NTF(1–76) wt; MBP-TNFα(1–76); source: E. coli NEB Express (pMalC5X), membrane fraction solubilised with Triton X-100, purified (amylose); not shown: MBP, N-terminal, kept) MSTESMIRDVELAEEALPKKTGGPQGSRRCLFLSLFSFLIVAGATTLFCLLHFGVIGPQREEFPRDLSLISPLAQA",stoichiometry N,3
"MSTESMIRDVELAEEALPKKTGGPQGSRRCLFLSLFSFLIVAGATTL (domain or fragment, human, UniProt P01375 1-47, looked up, The text names it without MBP; source: E. coli NEB Express (pMalC5X), membrane fraction solubilised with Triton X-100, purified (amylose); not shown: MBP, N-terminal, kept) [TNFα-NTF(1–47)]",stoichiometry N,2
